Data published in the supplement of paper PMC7125110.
± gives the standard error. Fewer inactive variants are shown than the library holds.

B1: glmS ribozyme (parent)
chain: AUAAAAGCGCCAGAACUACAGAAAUGUAGUUGACGAGGAGGAGGUUUAUCGAAUUUUCGGCGGAUGCCUCCAAA

Key:
Conditions in all cases: with glucosamine-6-phosphate
glucosamine-6-phosphate [1] = variants of: B1; test: self-cleavage kobs at 40 uM GlcN6P; higher = faster cleavage; RNA array
Summary of the method: (§1)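 The measurements used barcoded ribozyme variants on sequenced MiSeq chips, transcribed in situ by E. coli RNA polymerase and tracked at 37 °C with a hybridised Cy3 probe. Glucosamine-6-phosphate, 40 μM to 10 mM in HEPES/KCl/Mg(OAc)2 buffer, was flowed in while tiles were imaged over ~14 h. Baseline-normalised signals, also normalised to non-cleaving reference variants, gave per-tile medians that were fit to one- or two-exponential decays for kobs. kcat and KM resulted from weighted Michaelis–Menten fits across concentrations.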

glucosamine-6-phosphate [2] = variants of: B1; test: self-cleavage kobs at 160 uM GlcN6P; higher = faster cleavage; RNA array
Summary of the method: as §1

glucosamine-6-phosphate [3] = variants of: B1; test: self-cleavage kobs at 2500 uM GlcN6P; higher = faster cleavage; RNA array
Summary of the method: as §1

glucosamine-6-phosphate [4] = variants of: B1; test: self-cleavage kobs at 10000 uM GlcN6P; higher = faster cleavage; RNA array
Summary of the method: as §1

glucosamine-6-phosphate [5] = variants of: B1; test: self-cleavage kobs at 640 uM GlcN6P; higher = faster cleavage; RNA array
Summary of the method: as §1

Row | Variant | self-cleavage kobs at 40 uM GlcN6P (glucosamine-6-phosphate [1]) [s⁻¹] | self-cleavage kobs at 160 uM GlcN6P (glucosamine-6-phosphate [2]) [s⁻¹] | self-cleavage kobs at 2500 uM GlcN6P (glucosamine-6-phosphate [3]) [s⁻¹] | self-cleavage kobs at 10000 uM GlcN6P (glucosamine-6-phosphate [4]) [s⁻¹] | self-cleavage kobs at 640 uM GlcN6P (glucosamine-6-phosphate [5]) [s⁻¹]
1 | G7C C16G U47A | < 1e-05 | < 1e-05 | < 1e-05 | < 1e-05 | –
2 | C10U G43U C70A | < 1e-05 | – | – | – | –
3 | C8G G51U | < 1e-05 | – | – | < 1e-05 | < 1e-05
4 | G37A C50G C58A C67A C71U | 4.39e-05 ± 1.4e-05 | – | 6.21e-05 ± 1.7e-05 | – | –
5 | G7A C58A C67G | 5.23e-05 ± 2.2e-05 | – | – | – | –
6 | C11G U30C | < 1e-05 | – | – | – | < 1e-05
7 | U30C U69G | 3.65e-05 ± 1.2e-05 | 7.31e-05 ± 1.5e-05 | 5.46e-05 ± 1.1e-05 | 2.39e-05 ± 1.1e-05 | 0.000119 ± 2.8e-05
8 | A12U A39U | 0.00122 ± 0.00014 | 0.0029 ± 0.00074 | 0.00925 ± 0.0022 | 0.0541 ± 0.013 | 0.0129 ± 0.0047
9 | C11A U46A | < 1e-05 | – | – | < 1e-05 | < 1e-05
10 | G29C A42U U65C | < 1e-05 | – | < 1e-05 | < 1e-05 | –
11 | G13C A48G G66U C71G | < 1e-05 | – | – | < 1e-05 | –
12 | C16G U54G G60A C70A | < 1e-05 | – | 3.79e-05 ± 1.7e-05 | – | 0.000647 ± 0.0003
13 | C11A C34U | < 1e-05 | – | – | – | < 1e-05
14 | G9A A14U A39G | < 1e-05 | – | < 1e-05 | – | –
15 | U31A G43C U54G | < 1e-05 | – | – | < 1e-05 | –
16 | C11G C16A G38C | < 1e-05 | < 1e-05 | – | < 1e-05 | –
17 | C16U A39C | 0.000107 ± 1.4e-05 | – | 0.00222 ± 0.00082 | 0.00545 ± 0.0006 | –
18 | A42C G43U A48G G62C C67A C70G | < 1e-05 | – | < 1e-05 | – | < 1e-05
19 | A36G A53G | < 1e-05 | < 1e-05 | – | – | < 1e-05
20 | C10U G37A | < 1e-05 | < 1e-05 | – | < 1e-05 | –
21 | C10U G37C | < 1e-05 | – | – | < 1e-05 | < 1e-05
22 | G40C C50U C58A C71G | < 1e-05 | – | – | < 1e-05 | –
23 | A42G U49G C50U U55G G60A | < 1e-05 | – | – | < 1e-05 | –
24 | U31G G44A G51U C61U C70G | < 1e-05 | – | – | – | –
